Six molecules from patent US20230416330A1, “Optimized GIP Peptide Analogues” (Antag Therapeutics ApS, priority 2019, published 2023) can be followed below.

Starred links: 1 amine or outer side, 2 acyl side, 3 side chain; linkers in the order of their positions; H or OH if unused. Non-standard residues stand in square brackets, D forms with d. Groups on a side chain read outwards from the residue. No end group written: not given here. *: point of attachment. C16 diacid = O=C(O)CCCCCCCCCCCCCCC(=O)*; γGlu = O=C(O)[C@H](CCC(=O)[*:2])N[*:1]; Aib = CC(C)(N)C(=O)O

The assay deals with T1, human GIP receptor (human, UniProt P48546 22-466).
T1 sequence (looked up): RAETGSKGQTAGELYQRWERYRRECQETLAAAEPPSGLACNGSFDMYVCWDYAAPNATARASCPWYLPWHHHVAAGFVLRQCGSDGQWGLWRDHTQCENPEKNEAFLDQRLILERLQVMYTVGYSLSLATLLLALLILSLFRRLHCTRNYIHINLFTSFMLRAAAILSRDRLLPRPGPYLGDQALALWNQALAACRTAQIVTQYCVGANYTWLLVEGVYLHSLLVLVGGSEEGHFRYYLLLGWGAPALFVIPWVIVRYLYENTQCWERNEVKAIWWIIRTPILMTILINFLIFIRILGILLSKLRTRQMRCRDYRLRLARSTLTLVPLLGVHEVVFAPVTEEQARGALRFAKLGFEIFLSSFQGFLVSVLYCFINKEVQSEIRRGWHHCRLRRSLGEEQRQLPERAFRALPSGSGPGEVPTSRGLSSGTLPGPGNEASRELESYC
The experiment in a line: cell-based or functional assay.

B1: AT722 (peptide)
peptide: EGTFISEYSI[Aib]LEKIK([Ser-Gly-Gly-Gly-Gly-C16 diacid])QQEFVEWLLAQKPSSGAPPPS-OH
modifications: N-terminus assumed
SMILES: CC[C@H](C)[C@H](NC(=O)[C@H](CCCCN)NC(=O)[C@H](CCC(=O)O)NC(=O)[C@H](CC(C)C)NC(=O)C(C)(C)NC(=O)[C@@H](NC(=O)[C@H](CO)NC(=O)[C@H](Cc1ccc(O)cc1)NC(=O)[C@H](CCC(=O)O)NC(=O)[C@H](CO)NC(=O)[C@@H](NC(=O)[C@H](Cc1ccccc1)NC(=O)[C@@H](NC(=O)CNC(=O)[C@@H](N)CCC(=O)O)[C@@H](C)O)[C@@H](C)CC)[C@@H](C)CC)C(=O)N[C@@H](CCCCNC(=O)[C@H](CO)NC(=O)CNC(=O)CNC(=O)CNC(=O)CNC(=O)CCCCCCCCCCCCCCC(=O)O)C(=O)N[C@@H](CCC(N)=O)C(=O)N[C@@H](CCC(N)=O)C(=O)N[C@@H](CCC(=O)O)C(=O)N[C@@H](Cc1ccccc1)C(=O)N[C@H](C(=O)N[C@@H](CCC(=O)O)C(=O)N[C@@H](Cc1c[nH]c2ccccc12)C(=O)N[C@@H](CC(C)C)C(=O)N[C@@H](CC(C)C)C(=O)N[C@@H](C)C(=O)N[C@@H](CCC(N)=O)C(=O)N[C@@H](CCCCN)C(=O)N1CCC[C@H]1C(=O)N[C@@H](CO)C(=O)N[C@@H](CO)C(=O)NCC(=O)N[C@@H](C)C(=O)N1CCC[C@H]1C(=O)N1CCC[C@H]1C(=O)N1CCC[C@H]1C(=O)N[C@@H](CO)C(=O)O)C(C)C
In the case of B1, the “nM (Kb, Gaddum assay, cAMP)” value is 0.28 nM and the “pKb (Gaddum assay, cAMP)” value was 9.6.

B2: AT740 (peptide)
peptide: EGTFISDYSIK(C16 diacid)MDKIHQQDFVEWLLAQKPSSGAPPPS-OH
modifications: N-terminus assumed
SMILES: CC[C@H](C)[C@H](NC(=O)[C@H](CCCCN)NC(=O)[C@H](CC(=O)O)NC(=O)[C@H](CCSC)NC(=O)[C@H](CCCCNC(=O)CCCCCCCCCCCCCCC(=O)O)NC(=O)[C@@H](NC(=O)[C@H](CO)NC(=O)[C@H](Cc1ccc(O)cc1)NC(=O)[C@H](CC(=O)O)NC(=O)[C@H](CO)NC(=O)[C@@H](NC(=O)[C@H](Cc1ccccc1)NC(=O)[C@@H](NC(=O)CNC(=O)[C@@H](N)CCC(=O)O)[C@@H](C)O)[C@@H](C)CC)[C@@H](C)CC)C(=O)N[C@@H](Cc1c[nH]cn1)C(=O)N[C@@H](CCC(N)=O)C(=O)N[C@@H](CCC(N)=O)C(=O)N[C@@H](CC(=O)O)C(=O)N[C@@H](Cc1ccccc1)C(=O)N[C@H](C(=O)N[C@@H](CCC(=O)O)C(=O)N[C@@H](Cc1c[nH]c2ccccc12)C(=O)N[C@@H](CC(C)C)C(=O)N[C@@H](CC(C)C)C(=O)N[C@@H](C)C(=O)N[C@@H](CCC(N)=O)C(=O)N[C@@H](CCCCN)C(=O)N1CCC[C@H]1C(=O)N[C@@H](CO)C(=O)N[C@@H](CO)C(=O)NCC(=O)N[C@@H](C)C(=O)N1CCC[C@H]1C(=O)N1CCC[C@H]1C(=O)N1CCC[C@H]1C(=O)N[C@@H](CO)C(=O)O)C(C)C
For the molecule B2, the “nM (Kb, Gaddum assay, cAMP)” value amounted to 14 nM and the “pKb (Gaddum assay, cAMP)” value was 7.9.

B3: AT739 (peptide)
peptide: EGTFISDYSK(C16 diacid)AMDKIHQQDFVEWLLAQKPSSGAPPPS-OH
modifications: N-terminus assumed
SMILES: CC[C@H](C)[C@H](NC(=O)[C@H](CCCCN)NC(=O)[C@H](CC(=O)O)NC(=O)[C@H](CCSC)NC(=O)[C@H](C)NC(=O)[C@H](CCCCNC(=O)CCCCCCCCCCCCCCC(=O)O)NC(=O)[C@H](CO)NC(=O)[C@H](Cc1ccc(O)cc1)NC(=O)[C@H](CC(=O)O)NC(=O)[C@H](CO)NC(=O)[C@@H](NC(=O)[C@H](Cc1ccccc1)NC(=O)[C@@H](NC(=O)CNC(=O)[C@@H](N)CCC(=O)O)[C@@H](C)O)[C@@H](C)CC)C(=O)N[C@@H](Cc1c[nH]cn1)C(=O)N[C@@H](CCC(N)=O)C(=O)N[C@@H](CCC(N)=O)C(=O)N[C@@H](CC(=O)O)C(=O)N[C@@H](Cc1ccccc1)C(=O)N[C@H](C(=O)N[C@@H](CCC(=O)O)C(=O)N[C@@H](Cc1c[nH]c2ccccc12)C(=O)N[C@@H](CC(C)C)C(=O)N[C@@H](CC(C)C)C(=O)N[C@@H](C)C(=O)N[C@@H](CCC(N)=O)C(=O)N[C@@H](CCCCN)C(=O)N1CCC[C@H]1C(=O)N[C@@H](CO)C(=O)N[C@@H](CO)C(=O)NCC(=O)N[C@@H](C)C(=O)N1CCC[C@H]1C(=O)N1CCC[C@H]1C(=O)N1CCC[C@H]1C(=O)N[C@@H](CO)C(=O)O)C(C)C
For B3, the “nM (Kb, Gaddum assay, cAMP)” value stood at 11 nM and the “pKb (Gaddum assay, cAMP)” value stood at 7.9.

B4: AT721 (peptide)
peptide: EGTFISEYSI[Aib]LEKIK([γGlu-C16 diacid])QQEFVEWLLAQKPSSGAPPPS-OH
modifications: N-terminus assumed
SMILES: CC[C@H](C)[C@H](NC(=O)[C@H](CCCCN)NC(=O)[C@H](CCC(=O)O)NC(=O)[C@H](CC(C)C)NC(=O)C(C)(C)NC(=O)[C@@H](NC(=O)[C@H](CO)NC(=O)[C@H](Cc1ccc(O)cc1)NC(=O)[C@H](CCC(=O)O)NC(=O)[C@H](CO)NC(=O)[C@@H](NC(=O)[C@H](Cc1ccccc1)NC(=O)[C@@H](NC(=O)CNC(=O)[C@@H](N)CCC(=O)O)[C@@H](C)O)[C@@H](C)CC)[C@@H](C)CC)C(=O)N[C@@H](CCCCNC(=O)CC[C@H](NC(=O)CCCCCCCCCCCCCCC(=O)O)C(=O)O)C(=O)N[C@@H](CCC(N)=O)C(=O)N[C@@H](CCC(N)=O)C(=O)N[C@@H](CCC(=O)O)C(=O)N[C@@H](Cc1ccccc1)C(=O)N[C@H](C(=O)N[C@@H](CCC(=O)O)C(=O)N[C@@H](Cc1c[nH]c2ccccc12)C(=O)N[C@@H](CC(C)C)C(=O)N[C@@H](CC(C)C)C(=O)N[C@@H](C)C(=O)N[C@@H](CCC(N)=O)C(=O)N[C@@H](CCCCN)C(=O)N1CCC[C@H]1C(=O)N[C@@H](CO)C(=O)N[C@@H](CO)C(=O)NCC(=O)N[C@@H](C)C(=O)N1CCC[C@H]1C(=O)N1CCC[C@H]1C(=O)N1CCC[C@H]1C(=O)N[C@@H](CO)C(=O)O)C(C)C
With B4, the “nM (Kb, Gaddum assay, cAMP)” value was determined as 0.31 nM and the “pKb (Gaddum assay, cAMP)” value came to 9.5.

Take EGTFISEYSI[Aib]LEKIK([Ala-Glu-Leu-Ala-C16 diacid])QQEFVEWLLAQKPSSGAPPPS-OH [AT725]: the “nM (Kb, Gaddum assay, cAMP)” value was 0.6 nM and the “pKb (Gaddum assay, cAMP)” value was 9.2.

With EGTFISEYSI[Aib]LEKIK([Lys-Ala-Ala-Ala-Glu-Lys-Ala-Ala-Ala-Glu-Lys-Ala-Ala-Ala-Glu-C16 diacid])QQEFVEWLLAQKPSSGAPPPS-OH (not fully specified) [AT724], the “nM (Kb, Gaddum assay, cAMP)” value was 0.31 nM and the “pKb (Gaddum assay, cAMP)” value amounted to 9.5.
